The target in this experiment is T1, human Fibroblast Activation Protein (FAP), soluble recombinant antigen (human, UniProt Q12884 26-760, biotinylated for BLI and panning (sites not given)).
T1 construct: also called biotinylated FAP (Sino Biological); soluble FAP antigen
T1 sequence: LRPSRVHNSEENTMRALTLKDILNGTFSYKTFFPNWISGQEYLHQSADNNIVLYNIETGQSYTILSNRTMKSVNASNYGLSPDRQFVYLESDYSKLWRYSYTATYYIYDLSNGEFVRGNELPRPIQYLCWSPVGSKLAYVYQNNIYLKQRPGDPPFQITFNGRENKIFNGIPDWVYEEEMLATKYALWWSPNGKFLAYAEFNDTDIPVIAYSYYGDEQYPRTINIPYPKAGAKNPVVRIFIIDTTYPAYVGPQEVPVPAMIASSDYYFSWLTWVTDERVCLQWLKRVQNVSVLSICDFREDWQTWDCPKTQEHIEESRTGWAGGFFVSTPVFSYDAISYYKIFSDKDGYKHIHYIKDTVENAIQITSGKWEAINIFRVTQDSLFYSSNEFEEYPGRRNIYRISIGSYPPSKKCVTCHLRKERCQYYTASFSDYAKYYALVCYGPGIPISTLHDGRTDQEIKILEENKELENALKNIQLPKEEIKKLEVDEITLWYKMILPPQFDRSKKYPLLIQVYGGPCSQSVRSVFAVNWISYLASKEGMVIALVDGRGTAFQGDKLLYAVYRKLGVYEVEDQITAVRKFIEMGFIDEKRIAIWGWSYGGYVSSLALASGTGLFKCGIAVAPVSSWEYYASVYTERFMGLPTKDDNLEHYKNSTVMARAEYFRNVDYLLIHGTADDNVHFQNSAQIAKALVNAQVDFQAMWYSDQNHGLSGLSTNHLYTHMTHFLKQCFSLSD
Put plainly: BLI (Gator), biotinylated FAP on streptavidin sensor.

Numbering of substitutions follows the chain as printed.

B1: 872-5 (antibody, V domains shown)
VH: EVQLVESGGGLVQPGGSLRLSCAASGFTFRGYIMSWVRQAPGKGLEWVSWISPEGSRTGYADSVKGRFTISRDNSKNTLYLQMNSLRAEDTAVYYCARLQYGTWFDYWGQGTLVTVSS
VL: DIQMTQSPSSLSASVGDRVTITCRASQSISSYLNWYQQKPGKAPKLLIYAASSLQSGVPSRFSGSGSGTDFTLTISSLQPEDFATYYCQQATLLLPTFGQGTKVEIKR
Consider B1, for which the Kd (commonly a measure of binding affinity in units of concentration) was determined as 6.6 nM; the off-rate (koff) – broadly, a measure of how fast the partners let go of each other – came out at 0.0028 s⁻¹; the kon – broadly, a measure of how fast the partners come together – was found to be 420000 M⁻¹ s⁻¹.

B2: 872-70 (antibody, V domains shown)
VH: EVQLVESGGGLVQPGGSLRLSCAASGFTFSRYSMSWVRQAPGKGLEWVSYITSTDGTTDYADSVKGRFTISRDNSKNTLYLQMNSLRAEDTAVYYCARSQYGRYYSPDYYFDYWGQGTLVTVSS
VL: B1 VL with A91S, T92R, L93T, L94S, L95P, P96Y
As for B2, the dissociation constant (Kd) is < 1 nM and the kon stood at 110000 M⁻¹ s⁻¹.

B3: 872-59 (antibody, V domains shown)
VH: EVQLVESGGGLVQPGGSLRLSCAASGFTFTSYAMSWVRQAPGKGLEWVSSIYSWYGTTSYADSVKGRFTISRDNSKNTLYLQMNSLRAEDTAVYYCARTISYSQYAYGYSFDYWGQGTLVTVSS
VL: B1 VL with T92F, L93T, L94S, L95P, P96R
Regarding B3, the equilibrium dissociation constant (Kd) worked out at 15.5 nM, the koff was determined as 0.0056 s⁻¹ and the kon was 360000 M⁻¹ s⁻¹.

The values are drawn from patent US20240390506A1 (SUZHOU FUSE BIOSCIENCES, published 2024).
